The values below come from article PMC3618615 (Nature structural & molecular biology, 2013).

This assay concerns the target T1, EYA2 Eya domain (EYA2ED) (human, UniProt O00167-1 253-538).
T1 sequence: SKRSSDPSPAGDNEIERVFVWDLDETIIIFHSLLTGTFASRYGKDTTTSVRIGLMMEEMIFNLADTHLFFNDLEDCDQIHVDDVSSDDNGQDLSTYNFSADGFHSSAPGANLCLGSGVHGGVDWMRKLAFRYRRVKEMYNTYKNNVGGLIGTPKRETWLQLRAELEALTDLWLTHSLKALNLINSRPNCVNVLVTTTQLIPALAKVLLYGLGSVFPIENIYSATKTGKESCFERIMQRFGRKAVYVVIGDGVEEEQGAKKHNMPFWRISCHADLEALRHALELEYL
Nature of the assay: crystal structure.

B1: MBP-SIX1 (human SIX1 residues 1-189 fused to MBP_B) (domain or fragment, UniProt Q15475 1-189, looked up)
chain: MSMLPSFGFTQEQVACVCEVLQQGGNLERLGRFLWSLPACDHLHKNESVLKAKAVVAFHRGNFRELYKILESHQFSPHNHPKLQQLWLKAHYVEAEKLRGRPLGAVGKYRVRRKFPLPRTIWDGEETSYCFKEKSRGVLREWYAHNPYPSPREKRELAEATGLTTTQVSNWFKNRRQRDRAAEAKEREN
For B1, the binding result is recorded as “binds”.
